This is an account of results in patent US20200140557A1 (published 2020).

The target of this assay is T1, human FGFR1b extracellular domain.
T1 chain: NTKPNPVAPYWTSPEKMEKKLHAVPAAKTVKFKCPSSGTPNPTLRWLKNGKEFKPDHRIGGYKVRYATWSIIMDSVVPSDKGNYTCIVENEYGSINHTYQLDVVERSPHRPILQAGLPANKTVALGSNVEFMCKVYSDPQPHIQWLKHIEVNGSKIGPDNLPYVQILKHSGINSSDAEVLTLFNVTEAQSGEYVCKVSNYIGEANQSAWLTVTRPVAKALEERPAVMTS
The assay can be described thus: SPR. (Surface plasmon resonance follows binding to a sensor surface in real time, without labels.)

B1: R1MAb1 (antibody)
chain 1: EVQLVESGGGLVQPGGSLRLSCAASGFTFTSTWISWVPGKGLEWVGEIDPYDGDTYYADSVKGRFTISADTSKNLQMNSLRAEDTAVYYCASSGYGGSDYAMDYWGQ
chain 2: DIQMTQSPSSLSASVGDRVTITCRASQDVSTAVAWYQQKPGKAPKLLIYSASFLYSGVPSRFSGSGSGTDFTLTISSLQPEDFATYYCQQSYTTPPTFGQGTKVEIKR
One may read the Kd as the free concentration of one partner at which half of the binding sites on the other are occupied at equilibrium, for simple one-to-one binding. A high value points to weaker binding. Take B1: the Kd was determined as 0.59 nM.

B2: R1MAb2 (antibody)
chain 1: EVQLVESGGGLVQPGGSLRLSCAASGFTFSNNYIHWVPGKGLEWVADIYPNDGDTDYADSVKGRFTISADTSKNLQMNSLRAEDTAVYYCAREHFDAWVHYYVMDYWGQ
chain 2: B1 chain 2
In turn, B2 registered a Kd of 0.44 nM.
